Measured values taken from patent US20200131266A1 (STCUBE, published 2020).
Substitutions are numbered along the chain they refer to.

T1: human BTN1A1 on cells (human, UniProt Q13410 27-526)
T1 construct: also called HEK293T cells overexpressing BTN1A1
T1 sequence: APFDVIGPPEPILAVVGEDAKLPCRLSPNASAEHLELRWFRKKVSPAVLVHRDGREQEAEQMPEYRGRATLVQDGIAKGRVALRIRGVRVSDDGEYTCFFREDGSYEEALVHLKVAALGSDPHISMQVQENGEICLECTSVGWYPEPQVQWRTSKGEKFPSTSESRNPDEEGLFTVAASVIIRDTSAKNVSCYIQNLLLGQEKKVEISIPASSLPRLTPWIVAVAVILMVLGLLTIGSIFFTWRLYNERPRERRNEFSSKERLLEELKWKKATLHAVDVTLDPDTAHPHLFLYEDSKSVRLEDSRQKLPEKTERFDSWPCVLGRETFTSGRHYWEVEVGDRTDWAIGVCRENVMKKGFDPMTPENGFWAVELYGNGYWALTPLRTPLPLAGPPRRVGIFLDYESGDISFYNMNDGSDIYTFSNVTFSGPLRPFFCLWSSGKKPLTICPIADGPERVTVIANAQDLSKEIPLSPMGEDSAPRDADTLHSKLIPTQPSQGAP

B1: STC2778 (antibody, V domains shown)
VH: QIQLVQSGPELKKPGETVKISCKASGYSFTNYGMNWVKQAPGKGLKWMGWINIYTGETTYGDDFKGRFAFSLETSASTAYLQINNLRSEDTATYFCVRGGTMIMYWGQGTTLTVSS
VL: DIVLTQSPATLSVTPGDSVSLSCRASQSISNNLHWHQQKSHESPRLLIKYASQSMSGIPSRFSGSGSGTDFTLSINSVETEDFGMYFCQQSDSWPLTFGAGTKLELK
notes: mouse hybridoma monoclonal antibody raised against human BTN1A1-Fc, kappa light chain
B2: STC2739 (antibody, V domains shown)
VH: QVQLKQSGPGLVQPSQSLSITCTVSGFSLTTHGVNWVRQSPGKGLEWLGVIWSGGSTDYNAAFISRLSISKDNSKSQVFFKMNSLQANDTAIYYCARPYYYGAMDYWGQGTSVTVSS
VL: QIVLTQSPSIMSASPGEKVTITCSASSSVSYIHWFQQKPGTSPKLWIYSTSNLASGVPARFSGSGSGTSYSLTISRMEAEDAATYYCQQRSIYPLTFGAGTKLELK
notes: as for B1
B3: STC2602 (antibody, V domains shown)
VH: EVQLQQSGPELVKPGASVKISCKASGFSFIGYYIDWVKQSPGKSLEWIGYIYPSNGETSYHQKCKGKATLTVDKSSSTVNMQLNSLTSEDSAVYYCARYGNYDWFFDVWGAGTTVTVSS
VL: B2 VL with S9A, I32M, L45F, A59I, I92S, L95Y, A99G, L105I
notes: mouse hybridoma monoclonal antibody, kappa light chain

Target: T1, human BTN1A1 on cells
Assay: FACS, HEK293T cells overexpressing BTN1A1
Procedure: To identify anti-BTN1A1-Fc MAbs that were specific for and which preferentially bound human BTN1A1-Fc antigen, different types of assays were performed. In a screening assay to detect preferential binding of MAbs to BTN1A1, antibody binding was determined based on the measurement of fluorescence intensity through FACS analysis (using cell membrane bound proteins). By way of example, the assay was performed using the HEK293T human embryonic kidney cell line. Illustratively, HEK293T cells overexpressing BTN1A1 were incubated with anti-BTN1A1 antibodies existing in hybridoma culture supernatant. After washing, secondary antibodies conjugated with FITC were added as detection agent. Fluorescence intensity (measured fluorescence intensity, MFI) was measured via FACS I flow cytometry analysis to assess the relative binding of the anti-BTN1A1 antibodies to membrane bound BTN1A1 WT on cells. […] Based on the binding analysis, sixty seven candidate MAb-producing hybridomas were selected, grown in ADCF medium, and their supernatant containing monoclonal antibody was concentrated and purified.

| Binder | FACS (MFI) |
| --- | --- |
| B1 | 2340 MFI |
| B2 | 841 MFI |
| B3 | 69.5 MFI |
